Measured values published in the domain aggregation screens of Martell et al. (2025).

Assay: soluble fraction after stress (log2 fold change); higher = more stays soluble; pooled small domains, quantitative proteomics
Conditions: stress: pH 4
Summary of the method: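 Aggregation propensity is read out as the fold change in how much of each domain remains soluble after acid stress. The custom small-domain libraries were pooled, held at pH 4 and analysed with high-throughput quantitative proteomics. On the log2 scale used, higher values mean more of the domain stayed soluble.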

Sequence	soluble fraction (log2)
HMVELPDLIGKSKRLAFTQLEISGLKIGKIIYEPDLAKDAVLKILYNGKIVKAGEQLPRFATVDLVLG	-0.0904
HMGTYTSALDGIKGLGKKRKMLLLNTYKSIDVLKSVPLTELSQLIPREVAEALLTKLNRVDD	0.116
HMTSLYDILGIAKTADSQTIKTAFKKKALLYHPDKNNGNLKKEEIFKKISTAYQILSDPKSRANYDLSIA	0.22
HMNRGITVIVNNEEIKMKEKAQYVVVDIFDYIDFDLTVPKGSINITLNGENTPYTASIKDGDVIEVFW	-1.56
HMGVTGYPNPTREHITWDDARRIEVWNAYGVPVADLRFARGVLDVAGWPVGTYVARIDGGRSVRFVVI	-0.663
HMRNISLSLRWHSGEWTADRLKSEVLALPGAMDMTVFEPQSQAYLRVEQGFDTKLLPAGIDVH	-0.958
HMLDSNILTLIKELKIRHHFTATQTHQLEKVIQQAHALGLDNSEIRSLANSSPSAKSLINDLNQKLEPLRL	≥ 0.43
HMKDYKSSLQERVQAVGGGQLIYRVNREEGPDHSKTFYMDLFLGDRLIGTGSGRNKKQAEQQAAKEAIERG	0.0469
HMSVKTIRKTEFAKRLYSLMLEKNWNQSDLARASGMGRDSVSQYIRANNTPSPQNLKKLAEALGVEPVELY	0.0509
HMTYSSESVRYRIKSLIDNETIDEILSDDKIVNILKSQGIDVARRTVAKYREAMGLASSIQRRREKKSA	-0.0241
HMYAMTAEDWIVSGNRKYINDDLQGAIADYTKAIEIDPNYAAIYLVRGKAKYELKNYQGAIEDYTKAIE	-1.48
HMLLQTAVISTDIVNMRAEPTTNSSVIRKLTKGSDITINQEKDGWYKISDDQGNSGWIVTWAAKPT	-0.0639
HMNMVSGHLQVKKGYYYAVLSFYDSKNKRHVKYISTGLPEKGNKRKAEAELVKIRNAFEPPAE	-0.0995
HMVEPIEESISQLSLLLQSLYEDGKSEVSFEELIRSDRSRVSLFLALLFMAQRGNVYLEQEELFGDLRVKN	-0.4
HMSMDAVSLANRLLRFFQKRPGRKFTAADLAFETGMNERTGKSLVTSALEILSRTNQIEADGDGFRLKM	0.243
HMHLRYTYIYDNENRVTSKEASKWDSTQEAWVPYFKMNVSYVNNEVELSYARWNSKSNAYDSSIKKTI	-0.66
HMGHEISLNNSRFLKLLNKTKISISNDDTRHYLNGIFLHLTEAHGRQFLTGVATDSHRLSSSSLEID	-0.226
HMEYRVRDKMTDILELLTEHRGRIALRDAFPTGTREELLAAFLALLELTKMQTVIVYQDRLYDDIQIVMK	0.22
HMGNQALSSVLSDIAGIGPVKTKELLRVYPDLDSLRQAPVEEVAKVKGIGRQLAQKIHDHFSSR	-0.0357
HMQFHQDNYALEFIRDLQPVDGAIILSRFKQFDLVELEKAKKIKFSDEHMAWTLYDYDIKKIN	-1.82
HMINVLTPKQIEATTIAVKYGYYENPRTVSMRELSEISGIARSTLQEHLSKAEAALMILAAKSQL	-0.0956
HMEYQTVEKSEAEQIIQELEKAERLALKVYSKNDIITGISVSDGKSYYFSAELVPMLKNIIENPEIKIL	-1.14
HMTEKIVFNIDGQTGRIDKILADFMTGTSRSQIQAWVKDGNLMVNDKAVKSNYKVQDGDLLELTIPEPEQ	-0.378
HMEIETPEIRAIHDLLELLANKAKKPEQEQFVQAHPEVQWAKVEANKNGTFAVGKVKAYLKTLQA	-0.568
HMMESLGIRLKRLRKDKGLTQVELGKLSGVTGVTIGYWEKDLNEPGSKALSKLAQALGTTESYLLYGVS	0.22
HMLWTDTKYVTVPDFVGKEPKEIESSYLYNIEYHGEGTKVISQQPAAFSRTIEGGTVRLYLG	0.186
HMVERQVTVPNLTGLGVADAQRLAQSMELDIEVLGEQESTDARPGAVLQQTPGAGTRAAAGSVVSVLV	-0.179
HMKTSVGSKMMVMANNLSIRKSANLLSEKLADLSKGDMVEYISSTNGWNKVRYNGYVGYVSSYYLKDTGEV	0.375

Sequence	soluble fraction (log2)
HMARTGSEELVGALATVREPLAPWGQVFVQGALWRARSADGGPVDAGQQVVVRAVEGLTLVVEPRD	-0.166
HMLSKEFRFFTYLLESYAQHKNTTAGAVLKTLDEKGLTDFVYKMYDLYHVEAIENAYMDLDSLIATGKPA	-0.989
HMAVVAPLAGSVARVLVADGDEIEAGQVLLVLEAMKMETEITAPKAGKVGAILVGKGDSVQGGQGLR	-0.249
HMADRDKYIIMGQQLLRAAFEHFGKKATDKALENAANKLRISDVPELYARLGSAELQPRDVINVIFPD	-0.0521
HMGWEPTPVLVAARDISGGTVLDQDMLRVEAIPSRLVTPSIVRSDLLASVQDAKLLLPMKQGDLLNFNMLQ	-0.49
HMEDADERRALEVLNQLLDLPEREQEAALAALSLPPALARRVRSLLSVQTRAADLFDTAPSP	-0.6
HMSEEVKSQPISILDLSTRASNGLKNEGIETIGELVKYSEDELLGLDKFGQNSLKEIKKKLEEIGLTLKEH	-0.0527
HMSGTYIVTVQANTLDIYKSMTSNDTIGKANKGDVFQILEDMGGGYAKVSYNDVEGYISIKDGDTSIDEM	-1.29
HMDSLARKTVNGAEFYIYPVESAEGFYSLRRKFGVSQEEVIKYNPSAQNGLKSGQVLLIPVT	0.125
HMDGVLLDHLDGFVTTRRGVEAWLEQPTSFNKPSILLVAADGESTRRAIPSIAFGYDFASRHDIPAYDAG	-1.29
HMAGEDPANLELMRLMDEEYMEHPTKGVLGMVDFLRALGILTGPKRVRRLLRKMGIMAIYPK	-0.396
HMPAAFALLTDREREIAALIAQRLTNREIAEKLYLSEGSVKQYVNQLYAKLGIEGDTRTKRRRLAEQAK	0.12
HMFFDSDTDIQNALNAENSIKKYQLFRTQTLYNSAQSDIDFVNQPEVKAKLFDALENLKNKLGFLAEPT	-0.4
HMFERISELLTDEELAVYKRGRNANASSVPKHADIADYRRATGVEALFGYLYIKGEIDRINQLFELA	-0.635
HMARSVAEFVERGRSGGSLERPKLQRMLEYIQDRPVDFVIVHKIDRLARNRADDAAITKTIRGAGAYLVST	-0.103
HMSQQVVTDGVNLRLRYAPSPDAETYKWADGTNRHPEKGERFPYLGDIGDFYRIDYKGLVLYVSKQHTHL	-0.34
HMSESAGKALDILFYLARVEDEVSLARLSKETGMNKATALRYLAVLESWGVVEKRPSGWSLGLSLFELGSK	-1.03
HMSSETTVPAVVGIKEDKARQLASEQGLRLRVKSREESADVEEGIIISQDPNSNTKVKKGDEIEVVVS	0.32
HMTYIQSNLKFLRNKMNISQEELAKRLFVTHQTVSNHENGKSQPNFEMIEKYASFFNVPFEDLIHKDLSL	-0.309
HMRQYPSGVFKEEGVKAVYIHAGTPFLVIAAQYKIPLARLFEWNNLLPSTEARISQVIYLERPG	0.238
HMDFSSRLKDERKRLKLSQAQLGEAGGVSKDAQLNYENGSRSPSASYLELIAREGVDVQFLLTGKRS	-0.0636
HMVPVVGTTIPHEFIGKFGSARVMLKPAVEGSGVIAGGSARAVLELAGYKDIKTKVLGTNNPRNVVYATMN	0.196
HMNIYFNIEDAVANAVVENGKMSAAIYEKNVDTGEVAKLAEVSMPVMGGNINITKTLLTKALISQLP	-0.713
HMGTRIQAVMEDIQSRIAARTYLPGTRLPSVRAQAQAMQVSVSTVVEAYERLAAEGVIASRPGSGFYVAGP	≥ 0.43
HMALLSNTVDELHAGMRLDSYLFESGLYPSRSFAVKQIEAGKVFLNGDAVTKKTLVSNGDFIVYELEE	-0.506
HMNGKWKLRIIKELLHSNIRFGQILKNIPDISPKVLSQQLKEMEEDGIIERIVISEMPPNVEYVLTDMGE	-0.458
HMSDTFENILQRLIKATGRKNASEMANALGLSPQSVYSAKTKGKIPPAWIFAAAERFNASADWIYFGY	-0.759
